Experimental data as given in the supplement of paper PMC5998384.

Tests used:
HeLa Kyoto [1] = experiment: solubility change mitosis vs G1/S (difference of NP-40 vs SDS log2 ratios) (log2 ratio difference); higher = more soluble in mitosis
HeLa Kyoto [2] = experiment: thermal stability score vs G1/S (z-score of summed log2 fold changes over temperatures); higher = more thermally stable than in G1/S
HeLa Kyoto [3] = experiment: melting temperature (median over replicates), in situ; higher = more thermally stable
HeLa Kyoto [4] = experiment: solubility in G1/S (NP-40 vs SDS abundance) (log2 ratio); higher = more soluble; conditions: cell cycle stage: G1/S
[5] = cell cycle stage: early G1 (4.5 h after nocodazole release)
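Wherever melting temperature (median over replicates), in situ is given: HeLa Kyoto cells synchronized by double thymidine or nocodazole block, proteins quantified by TMT10plex mass spectrometry, three independent biological replicates.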
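Wherever solubility change mitosis vs G1/S (difference of NP-40 vs SDS log2 ratios) is given: synchronized HeLa Kyoto cells (double thymidine block for G1/S, nocodazole release for mitosis), protein amounts in NP-40 versus SDS lysates quantified by mass spectrometry, three biological replicates.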
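Wherever solubility in G1/S (NP-40 vs SDS abundance) is given: HeLa Kyoto cells arrested at G1/S by double thymidine block, proteins quantified by TMT10plex mass spectrometry in mild NP-40 versus SDS extracts, three biological replicates.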
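Wherever thermal stability score vs G1/S (z-score of summed log2 fold changes over temperatures) is given: synchronized HeLa Kyoto cells, proteins quantified by TMT10plex mass spectrometry, three biological replicates, mitosis taken 0.5 h after nocodazole release, G1/S directly after double thymidine block.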

Sequence	solubility change mitosis (log2) (HeLa Kyoto [1])	thermal stability score (HeLa Kyoto [2]; [5])	thermal stability score (HeLa Kyoto [2]; cell cycle stage: mitosis)	melting temperature (HeLa Kyoto [3]; cell cycle stage: G1/S)	melting temperature (HeLa Kyoto [3]; cell cycle stage: mitosis)	solubility in G1/S (log2) (HeLa Kyoto [4])
MNKLYIGNLSENAAPSDLESIFKDAKIPVSGPFLVKTGYAFVDCPDESWALKAIEALSGKIELHGKPIEVEHSVPKRQRIRKLQIRNIPPHLQWEVLDSLLVQYGVVESCEQVNTDSETAVVNVTYSSKDQARQALDKLNGFQLENFTLKVAYIPDEMAAQQNPLQQPRGRRGLGQRGSSRQGSPGSVSKQKPCDLPLRLLVPTQFVGAIIGKEGATIRNITKQTQSKIDVHRKENAGAAEKSITILSTPEGTSAACKSILEIMHKEAQDIKFTEEIPLKILAHNNFVGRLIGKEGRNLKKIEQDTDTKITISPLQELTLYNPERTITVKGNVETCAKAEEEIMKKIRESYENDIASMNLQAHLIPGLNLNALGLFPPTSGMPPPTSGPPSAMTPPYPQFEQSETETVHLFIPALSVGAIIGKQGQHIKQLSRFAGASIKIAPAEAPDAKVRMVIITGPPEAQFKAQGRIYGKIKEENFVSPKEEVKLEAHIRVPSFAAGRVIGKGGKTVNELQNLSSAEVVVPRDQTPDENDQVVVKITGHFYACQVAQRKIQEILTQVKQHQQQKALQSGPPQSRRK [IGF2BP3]	0.0855	0.549	0.841	46.9 °C	47.6 °C	0.241
MAGKAHRLSAEERDQLLPNLRAVGWNELEGRDAIFKQFHFKDFNRAFGFMTRVALQAEKLDHHPEWFNVYNKVHITLSTHECAGLSERDINLASFIEQVAVSMT [PCBD1]	0.0567	1.22	-0.726	54.6 °C	55.6 °C	0.0398
MESRDPAQPMSPGEATQSGARPADRYGLLKHSREFLDFFWDIAKPEQETRLAATEKLLEYLRGRPKGSEMKYALKRLITGLGVGRETARPCYSLALAQLLQSFEDLPLCSILQQIQEKYDLHQVKKAMLRPALFANLFGVLALFQSGRLVKDQEALMKSVKLLQALAQYQNHLQEQPRKALVDILSEVSKATLQEILPEVLKADLNIILSSPEQLELFLLAQQKVPSKLKKLVGSVNLFSDENVPRLVNVLKMAASSVKKDRKLPAIALDLLRLALKEDKFPRFWKEVVEQGLLKMQFWPASYLCFRLLGAALPLLTKEQLHLVMQGDVIRHYGEHVCTAKLPKQFKFAPEMDDYVGTFLEGCQDDPERQLAVLVAFSSVTNQGLPVTPTFWRVVRFLSPPALQGYVAWLRAMFLQPDLDSLVDFSTNNQKKAQDSSLHMPERAVFRLRKWIIFRLVSIVDSLHLEMEEALTEQVARFCLFHSFFVTKKPTSQIPETKHPFSFPLENQAREAVSSAFFSLLQTLSTQFKQAPGQTQGGQPWTYHLVQFADLLLNHSHNVTTVTPFTAQQRQAWDRMLQTLKELEAHSAEARAAAFQHLLLLVGIHLLKSPAESCDLLGDIQTCIRKSLGEKPRRSRTKTIDPQEPPWVEVLVEILLALLAQPSHLMRQVARSVFGHICSHLTPRALQLILDVLNPETSEDENDRVVVTDDSDERRLKGAEDKSEEGEDNRSSESEEESEGEESEEEERDGDVDQGFREQLMTVLQAGKALGGEDSENEEELGDEAMMALDQSLASLFAEQKLRIQARRDEKNKLQKEKALRRDFQIRVLDLVEVLVTKQPENALVLELLEPLLSIIRRSLRSSSSKQEQDLLHKTARIFTHHLCRARRYCHDLGERAGALHAQVERLVQQAGRQPDSPTALYHFNASLYLLRVLKGNTAEGCVHETQEKQKAGTDPSHMPTGPQAASCLDLNLVTRVYSTALSSFLTKRNSPLTVPMFLSLFSRHPVLCQSLLPILVQHITGPVRPRHQACLLLQKTLSMREVRSCFEDPEWKQLMGQVLAKVTENLRVLGEAQTKAQHQQALSSLELLNVLFRTCKHEKLTLDLTVLLGVLQGQQQSLQQGAHSTGSSRLHDLYWQAMKTLGVQRPKLEKKDAKEIPSATQSPISKKRKKKGFLPETKKRKKRKSEDGTPAEDGTPAATGGSQPPSMGRKKRNRTKAKVPAQANGTPTTKSPAPGAPTRSPSTPAKSPKLQKKNQKPSQVNGAPGSPTEPAGQKQHQKALPKKGVLGKSPLSALARKKARLSLVIRSPSLLQSGAKKKAQVRKAGKP [MYBBP1A]	0.349	0.7	2.36	48.1 °C	48.9 °C	-0.42
MFQLPVNNLGSLRKARKTVKKILSDIGLEYCKEHIEDFKQFEPNDFYLKNTTWEDVGLWDPSLTKNQDYRTKPFCCSACPFSSKFFSAYKSHFRNVHSEDFENRILLNCPYCTFNADKKTLETHIKIFHAPNASAPSSSLSTFKDKNKNDGLKPKQADSVEQAVYYCKKCTYRDPLYEIVRKHIYREHFQHVAAPYIAKAGEKSLNGAVPLGSNAREESSIHCKRCLFMPKSYEALVQHVIEDHERIGYQVTAMIGHTNVVVPRSKPLMLIAPKPQDKKSMGLPPRIGSLASGNVRSLPSQQMVNRLSIPKPNLNSTGVNMMSSVHLQQNNYGVKSVGQGYSVGQSMRLGLGGNAPVSIPQQSQSVKQLLPSGNGRSYGLGSEQRSQAPARYSLQSANASSLSSGQLKSPSLSQSQASRVLGQSSSKPAAAATGPPPGNTSSTQKWKICTICNELFPENVYSVHFEKEHKAEKVPAVANYIMKIHNFTSKCLYCNRYLPTDTLLNHMLIHGLSCPYCRSTFNDVEKMAAHMRMVHIDEEMGPKTDSTLSFDLTLQQGSHTNIHLLVTTYNLRDAPAESVAYHAQNNPPVPPKPQPKVQEKADIPVKSSPQAAVPYKKDVGKTLCPLCFSILKGPISDALAHHLRERHQVIQTVHPVEKKLTYKCIHCLGVYTSNMTASTITLHLVHCRGVGKTQNGQDKTNAPSRLNQSPSLAPVKRTYEQMEFPLLKKRKLDDDSDSPSFFEEKPEEPVVLALDPKGHEDDSYEARKSFLTKYFNKQPYPTRREIEKLAASLWLWKSDIASHFSNKRKKCVRDCEKYKPGVLLGFNMKELNKVKHEMDFDAEWLFENHDEKDSRVNASKTADKKLNLGKEDDSSSDSFENLEEESNESGSPFDPVFEVEPKISNDNPEEHVLKVIPEDASESEEKLDQKEDGSKYETIHLTEEPTKLMHNASDSEVDQDDVVEWKDGASPSESGPGSQQVSDFEDNTCEMKPGTWSDESSQSEDARSSKPAAKKKATMQGDREQLKWKNSSYGKVEGFWSKDQSQWKNASENDERLSNPQIEWQNSTIDSEDGEQFDNMTDGVAEPMHGSLAGVKLSSQQA [ADNP]	0.303	1.91	4.53	46.7 °C	49.2 °C	-0.566
MNGTLDHPDQPDLDAIKMFVGQVPRTWSEKDLRELFEQYGAVYEINVLRDRSQNPPQSKGCCFVTFYTRKAALEAQNALHNMKVLPGMHHPIQMKPADSEKNNAVEDRKLFIGMISKKCTENDIRVMFSSFGQIEECRILRGPDGLSRGCAFVTFTTRAMAQTAIKAMHQAQTMEGCSSPMVVKFADTQKDKEQKRMAQQLQQQMQQISAASVWGNLAGLNTLGPQYLALYLQLLQQTASSGNLNTLSSLHPMGGLNAMQLQNLAALAAAASAAQNTPSGTNALTTSSSPLSVLTSSGSSPSSSSSNSVNPIASLGALQTLAGATAGLNVGSLAGMAALNGGLGSSGLSNGTGSTMEALTQAYSGIQQYAAAALPTLYNQNLLTQQSIGAAGSQKEGPEGANLFIYHLPQEFGDQDLLQMFMPFGNVVSAKVFIDKQTNLSKCFGFVSYDNPVSAQAAIQSMNGFQIGMKRLKVQLKRSKNDSKPY [CELF1]	-0.0537	1.56	2.85	47.5 °C	48.1 °C	0.269
MNWNKGGPGTKRGFGFGGFAISAGKKEEPKLPQQSHSAFGATSSSSGFGKSAPPQLPSFYKIGSKRANFDEENAYFEDEEEDSSNVDLPYIPAENSPTRQQFHSKPVDSDSDDDPLEAFMAEVEDQAARDMKRLEEKDKERKNVKGIRDDIEEEDDQEAYFRYMAENPTAGVVQEEEEDNLEYDSDGNPIAPTKKIIDPLPPIDHSEIDYPPFEKNFYNEHEEITNLTPQQLIDLRHKLNLRVSGAAPPRPGSSFAHFGFDEQLMHQIRKSEYTQPTPIQCQGVPVALSGRDMIGIAKTGSGKTAAFIWPMLIHIMDQKELEPGDGPIAVIVCPTRELCQQIHAECKRFGKAYNLRSVAVYGGGSMWEQAKALQEGAEIVVCTPGRLIDHVKKKATNLQRVSYLVFDEADRMFDMGFEYQVRSIASHVRPDRQTLLFSATFRKKIEKLARDILIDPIRVVQGDIGEANEDVTQIVEILHSGPSKWNWLTRRLVEFTSSGSVLLFVTKKANAEELANNLKQEGHNLGLLHGDMDQSERNKVISDFKKKDIPVLVATDVAARGLDIPSIKTVINYDVARDIDTHTHRIGRTGRAGEKGVAYTLLTPKDSNFAGDLVRNLEGANQHVSKELLDLAMQNAWFRKSRFKGGKGKKLNIGGGGLGYRERPGLGSENMDRGNNNVMSNYEAYKPSTGAMGDRLTAMKAAFQSQYKSHFVAASLSNQKAGSSAAGASGWTSAGSLNSVPTNSAQQGHNSPDSPVTSAAKGIPGFGNTGNISGAPVTYPSAGAQGVNNTASGNNSREGTGGSNGKRERYTENRGSSRHSHGETGNRHSDSPRHGDGGRHGDGYRHPESSSRHTDGHRHGENRHGGSAGRHGENRGANDGRNGESRKEAFNRESKMEPKMEPKVDSSKMDKVDSKTDKTADGFAVPEPPKRKKSRWDS [DDX42]	0.145	3.02	7.75	47.2 °C	48.8 °C	-0.252
MATGANATPLDFPSKKRKRSRWNQDTMEQKTVIPGMPTVIPPGLTREQERAYIVQLQIEDLTRKLRTGDLGIPPNPEDRSPSPEPIYNSEGKRLNTREFRTRKKLEEERHNLITEMVALNPDFKPPADYKPPATRVSDKVMIPQDEYPEINFVGLLIGPRGNTLKNIEKECNAKIMIRGKGSVKEGKVGRKDGQMLPGEDEPLHALVTANTMENVKKAVEQIRNILKQGIETPEDQNDLRKMQLRELARLNGTLREDDNRILRPWQSSETRSITNTTVCTKCGGAGHIASDCKFQRPGDPQSAQDKARMDKEYLSLMAELGEAPVPASVGSTSGPATTPLASAPRPAAPANNPPPPSLMSTTQSRPPWMNSGPSESRPYHGMHGGGPGGPGGGPHSFPHPLPSLTGGHGGHPMQHNPNGPPPPWMQPPPPPMNQGPHPPGHHGPPPMDQYLGSTPVGSGVYRLHQGKGMMPPPPMGMMPPPPPPPSGQPPPPPSGPLPPWQQQQQQPPPPPPPSSSMASSTPLPWQQNTTTTTTSAGTGSIPPWQQQQAAAAASPGAPQMQGNPTMVPLPPGVQPPLPPGAPPPPPPPPPGSAGMMYAPPPPPPPPMDPSNFVTMMGMGVAGMPPFGMPPAPPPPPPQN [SF1]	0.135	-4.58	-1.85	53.4 °C		0.255
MAPYSLLVTRLQKALGVRQYHVASVLCQRAKVAMSHFEPNEYIHYDLLEKNINIVRKRLNRPLTLSEKIVYGHLDDPASQEIERGKSYLRLRPDRVAMQDATAQMAMLQFISSGLSKVAVPSTIHCDHLIEAQVGGEKDLRRAKDINQEVYNFLATAGAKYGVGFWKPGSGIIHQIILENYAYPGVLLIGTDSHTPNGGGLGGICIGVGGADAVDVMAGIPWELKCPKVIGVKLTGSLSGWSSPKDVILKVAGILTVKGGTGAIVEYHGPGVDSISCTGMATICNMGAEIGATTSVFPYNHRMKKYLSKTGREDIANLADEFKDHLVPDPGCHYDQLIEINLSELKPHINGPFTPDLAHPVAEVGKVAEKEGWPLDIRVGLIGSCTNSSYEDMGRSAAVAKQALAHGLKCKSQFTITPGSEQIRATIERDGYAQILRDLGGIVLANACGPCIGQWDRKDIKKGEKNTIVTSYNRNFTGRNDANPETHAFVTSPEIVTALAIAGTLKFNPETDYLTGTDGKKFRLEAPDADELPKGEFDPGQDTYQHPPKDSSGQHVDVSPTSQRLQLLEPFDKWDGKDLEDLQILIKVKGKCTTDHISAAGPWLKFRGHLDNISNNLLIGAINIENGKANSVRNAVTQEFGPVPDTARYYKKHGIRWVVIGDENYGEGSSREHAALEPRHLGGRAIITKSFARIHETNLKKQGLLPLTFADPADYNKIHPVDKLTIQGLKDFTPGKPLKCIIKHPNGTQETILLNHTFNETQIEWFRAGSALNRMKELQQ [ACO2]	-0.179	0.706	0.579	51.3 °C	51.3 °C	0.183
